From patent publication US11807868

Assays:
Assay in all cases: cell-based or functional assay
[1] = target: wild-type AAV2 capsid (adeno-associated virus type 2 (AAV2)) (UniProt P03135)
[2] = target: SM 10-8 variant AAV capsid (Adeno-associated virus 2 (isolate Srivastava/1982) (AAV-2)) (UniProt P03135)
[3] = target: wild-type AAV1 capsid (adeno-associated virus type 1 (AAV1))
[4] = target: wild-type AAV8 capsid (adeno-associated virus type 8 (AAV8))
[5] = target: SM 10-2 variant AAV capsid (Adeno-associated virus 2 (isolate Srivastava/1982) (AAV-2)) (UniProt P03135)
[6] = target: AAV2 capsid variant γ4.3 (adeno-associated virus type 2 (AAV2)) (UniProt P03135)
[7] = target: SM 100-10 variant AAV capsid (Adeno-associated virus 2 (isolate Srivastava/1982) (AAV-2)) (UniProt P03135)
[8] = target: SM 100-3 variant AAV capsid (Adeno-associated virus 2 (isolate Srivastava/1982) (AAV-2)) (UniProt P03135)
[9] = target: AAV2 capsid variant 1.45 (adeno-associated virus type 2 (AAV2)) (UniProt P03135)

Substance “Gamimune N, 10% Human IVIG (Bayer, Elkhart Ind.)” has a Fold Resistance Relative to AAV2 [1] of 1 fold, a Neutralizing IVIG concentration (IVIG required to reduce gene delivery efficiency to 50% of that in the absence of IVIG) [1] of 0.015 mg/mL and a Fold Resistance Relative to AAV2 [2] of 3.41 fold. The Neutralizing IVIG concentration (IVIG required to reduce gene delivery efficiency to 50% of that in the absence of IVIG) [2] was 0.051 mg/mL, the Fold Resistance Relative to AAV2 [3] was 1.76 fold and the Neutralizing IVIG concentration (IVIG required to reduce gene delivery efficiency to 50% of that in the absence of IVIG) [3] was 0.026 mg/mL. For the same substance, the Fold Resistance Relative to AAV2 [4] was 6.11 fold, the Neutralizing IVIG concentration (IVIG required to reduce gene delivery efficiency to 50% of that in the absence of IVIG) [4] was 0.092 mg/mL and the Fold Resistance Relative to AAV2 [5] was 7.52 fold. For the same substance, the Neutralizing IVIG concentration (IVIG required to reduce gene delivery efficiency to 50% of that in the absence of IVIG) [5] was 0.113 mg/mL, the fold enhanced resistance to pooled human IVIg compared to wild-type AAV2 [6] was 3.1 fold and the Fold Resistance Relative to AAV2 [7] was 4.39 fold. For the same substance, the Neutralizing IVIG concentration (IVIG required to reduce gene delivery efficiency to 50% of that in the absence of IVIG) [7] was 0.066 mg/mL, the Fold Resistance Relative to AAV2 [8] was 4.94 fold and the Neutralizing IVIG concentration (IVIG required to reduce gene delivery efficiency to 50% of that in the absence of IVIG) [8] was 0.074 mg/mL. It also gave a fold enhanced resistance to pooled human IVIg compared to wild-type AAV2 [9] of 1.23 fold.
